± gives the uncertainty stated by the source.
Assay: self-splicing fitness, log relative to wild type (ln ratio); higher = more splicing; Tetrahymena group I intron in knt gene, E. coli kanamycin selection, DiMSum; sequences stand for … in CUCUCU…GGAGGGAAAAGUUAUCAGGCAUGCACCUGGUAGCUAGUCUUUAAACCAAUAGAUUGCAUCGGUUUAAAAGGCAAGACCGUCAAAUUGCGGGAAAGGGGUCAACAGCCGUUCAGUACCAAGUCUCAGGGGAAACUUUGAGAUGGCCUUGCAAAGGGUAUGGUAAUAAGCUGACGGACAUGGUCCUAACCACGCAGCCAAGUCCUAAGUCAACAGAUCUUCUGUUGAUAUGGAUGCAGUUCACAGACUAAAUGUCGGUCGGGGAAGAUGUAUUCUUCUCAUAAGAUAUAGUCGGACCUCUCCUUAAUGGGAGCUAGCGGAUGAAGUGAUGCAACACUGGAGCCGCUGGGAACUAAUUUGUAUGCGAAAGUAUAUUGAUUAGUUUUGGAGUACUCGUGGUCG
Outline: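 Fitness was computed with DiMSum as the error-weighted combination of replicate fold changes, kanamycin versus none, each normalised to wild type. The library randomised all eight intron nucleotides of the P1ex region, with the intron placed in the knt kanamycin-resistance gene on pET-22b(+) in E. coli BL21(DE3). Six replicate transformations were grown overnight at 37°C or 30°C on LB agar with or without 25 μg/mL kanamycin, plus 100 μg/mL carbenicillin, 50 μM IPTG and 0.2% rhamnose. Pooled colonies were amplicon-sequenced on an Illumina HiSeq 2500.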

Sequence	self-splicing fitness (ln) (30 °C)	self-splicing fitness (ln) (37 °C)
UAAAAGCAAUAUUACGUAAC	-3.84 ± 0.33	-2.02 ± 0.3
CGUCAGCAAUAUUACGCCAU	-3.87 ± 0.29	-2.81 ± 0.3
GGACAGCAAUAUUACGUGUU	-3.42 ± 0.13	-2.44 ± 0.2
GCACAGCAAUAUUACGAGAA	-2.66 ± 0.25	-0.185 ± 0.12
GUCGAGCAAUAUUACGUAUG	-3.13 ± 0.32	-0.147 ± 0.21
GCGCAGCAAUAUUACGCCCA	0.169 ± 0.24	-0.637 ± 0.33
CGUCAGCAAUAUUACGGGCA	0.0754 ± 0.085	0.572 ± 0.096
AUACAGCAAUAUUACGUGAA	-2.19 ± 0.077	-1.08 ± 0.076
AUGAAGCAAUAUUACGCUCG	-0.0634 ± 0.1	0.31 ± 0.16
UAGCAGCAAUAUUACGGUAG	-1.07 ± 0.051	-0.873 ± 0.067
CAGGAGCAAUAUUACGCAUU		0.11 ± 0.4
UGACAGCAAUAUUACGUAGG	-1.78 ± 0.079	-1.31 ± 0.11
UAUAAGCAAUAUUACGUCGA	-1.56 ± 0.14	-0.891 ± 0.16
CUACAGCAAUAUUACGAUAG	-2.04 ± 0.12	-1.16 ± 0.12
ACCCAGCAAUAUUACGGGAC	-2.71 ± 0.1	-1.54 ± 0.1
GCUGAGCAAUAUUACGAAAU	-3.27 ± 0.2	-2.43 ± 0.22
GGCAAGCAAUAUUACGGAAC	-1.46 ± 0.13	0.485 ± 0.21
AGGCAGCAAUAUUACGGUGU	-2.38 ± 0.13	-1.73 ± 0.15
CUAGAGCAAUAUUACGCCAA	-0.987 ± 0.2	-2.54 ± 0.41
CCGAAGCAAUAUUACGCGUU	-4.01 ± 0.16	-2.4 ± 0.12
ACGGAGCAAUAUUACGGGAG	-3.09 ± 0.37	-1.65 ± 0.24
GUGUAGCAAUAUUACGAAAC	-3.2 ± 0.41	-1.89 ± 0.34
GUUGAGCAAUAUUACGGUAG	-4.24 ± 0.46	-1.94 ± 0.41
ACCGAGCAAUAUUACGUCCA		-0.553 ± 0.21
UUCUAGCAAUAUUACGGACU	-1.6 ± 0.17	-1.16 ± 0.19

Sequence	self-splicing fitness (ln) (30 °C)	self-splicing fitness (ln) (37 °C)
CAAGAGCAAUAUUACGACUU	-2.96 ± 0.12	-1.46 ± 0.12
UGCCAGCAAUAUUACGGGAA	-1.37 ± 0.092	-0.333 ± 0.1
GGAUAGCAAUAUUACGGGUC	-4.23 ± 0.46	-2.64 ± 0.29
CAAGAGCAAUAUUACGUACG	-0.91 ± 0.084	0.0935 ± 0.11
GUGGAGCAAUAUUACGGGCA	-2.2 ± 0.28	-1.76 ± 0.45
CAAUAGCAAUAUUACGGUCC	-3.21 ± 0.38	-2.34 ± 0.39
AUACAGCAAUAUUACGCCGA	-1.98 ± 0.18	-1.51 ± 0.19
CCUAAGCAAUAUUACGGCGG	-3.12 ± 0.17	-2.79 ± 0.2
CUAAAGCAAUAUUACGCGAC	-0.482 ± 0.14	-0.124 ± 0.17
GGAAAGCAAUAUUACGCGAU	-2.98 ± 0.18	-1.02 ± 0.17
UCGAAGCAAUAUUACGUUCA	-2.59 ± 0.26	-1.18 ± 0.17
CUGUAGCAAUAUUACGUGUU	-4.29 ± 0.17	-0.79 ± 0.13
GUCUAGCAAUAUUACGGUCC	-2.44 ± 0.15	-1.18 ± 0.13
CGUAAGCAAUAUUACGCUCU	-0.698 ± 0.17	-1.35 ± 0.2
GAGCAGCAAUAUUACGUCUA	0.0729 ± 0.12	0.0653 ± 0.13
CUCGAGCAAUAUUACGGACU	-2.35 ± 0.19	-1.95 ± 0.26
AUAAAGCAAUAUUACGUUCG	-0.321 ± 0.085	0.17 ± 0.13
CCCCAGCAAUAUUACGACGG	-3.1 ± 0.17	-3.42 ± 0.3
UAACAGCAAUAUUACGGCUG	-2.55 ± 0.095	-0.978 ± 0.12
UCUUAGCAAUAUUACGCAGG	-3.45 ± 0.43	-1.75 ± 0.38
ACCGAGCAAUAUUACGGCCC	-2.37 ± 0.21	-1.89 ± 0.29
GGAAAGCAAUAUUACGCCUA	-1.28 ± 0.18	-0.669 ± 0.23
GACGAGCAAUAUUACGAGGA	-2.28 ± 0.28	-2.66 ± 0.36
AGCAAGCAAUAUUACGAUCU	-0.189 ± 0.052	0.631 ± 0.077
GGAUAGCAAUAUUACGAAUA		0.53 ± 0.21

Sequence	self-splicing fitness (ln) (30 °C)	self-splicing fitness (ln) (37 °C)
GCGCAGCAAUAUUACGGGCU	-3.6 ± 0.23	-3.02 ± 0.27
AUAAAGCAAUAUUACGUCUU	0.183 ± 0.05	0.29 ± 0.073
UUCCAGCAAUAUUACGCUUC	-4.08 ± 0.24	-2.58 ± 0.18
UCCCAGCAAUAUUACGCAGG	-3.88 ± 0.29	-3.54 ± 0.26
ACCCAGCAAUAUUACGAGUU	-1.14 ± 0.048	-0.101 ± 0.061
CGCGAGCAAUAUUACGCGCU		-1.67 ± 0.32
AGCUAGCAAUAUUACGCUUC	-3.25 ± 0.3	-2.65 ± 0.28
AGACAGCAAUAUUACGCACG	-2.11 ± 0.12	-0.922 ± 0.13
AAAAAGCAAUAUUACGGUAU	-2.2 ± 0.08	-0.966 ± 0.08
CGCAAGCAAUAUUACGAUUA	-2.6 ± 0.17	-1.29 ± 0.15
UAUGAGCAAUAUUACGCCGG	-1.7 ± 0.11	-0.905 ± 0.19
ACACAGCAAUAUUACGAGCG	-0.734 ± 0.074	-0.104 ± 0.088
UAGCAGCAAUAUUACGCUAC	-2.76 ± 0.32	-2.13 ± 0.44
GGCAAGCAAUAUUACGAGAG	-3.94 ± 0.24	-2.26 ± 0.15
CUUUAGCAAUAUUACGGCCG	-0.432 ± 0.19	-0.348 ± 0.29
GGUCAGCAAUAUUACGUAUG	-1.66 ± 0.085	0.0829 ± 0.1
UGAAAGCAAUAUUACGAGCU	-1.42 ± 0.14	-0.746 ± 0.17
ACAAAGCAAUAUUACGUCAA	-3.26 ± 0.25	-1.66 ± 0.14
ACCCAGCAAUAUUACGGACA	-0.0478 ± 0.08	-0.181 ± 0.089
UCUCAGCAAUAUUACGGACC		-2.13 ± 0.34
GGACAGCAAUAUUACGAUCG	-0.492 ± 0.099	0.519 ± 0.11
ACUCAGCAAUAUUACGAUCG	-1.54 ± 0.074	-0.221 ± 0.12
CCUAAGCAAUAUUACGUAGU	-1.3 ± 0.061	-0.474 ± 0.083
UUGGAGCAAUAUUACGACGC		-2.47 ± 0.33
AUGGAGCAAUAUUACGUGAU	-2.73 ± 0.088	-0.769 ± 0.08

Sequence	self-splicing fitness (ln) (30 °C)	self-splicing fitness (ln) (37 °C)
GGGUAGCAAUAUUACGAAAU	-1.8 ± 0.11	-0.914 ± 0.11
CGUUAGCAAUAUUACGCUUC		-2.27 ± 0.36
UCUAAGCAAUAUUACGUUGU	-4.19 ± 0.24	-1.86 ± 0.15
AUAUAGCAAUAUUACGGUGU	-2.03 ± 0.16	-1.38 ± 0.17
AGCUAGCAAUAUUACGAAUC		-1.56 ± 0.28
UUAUAGCAAUAUUACGCCCG	-1.45 ± 0.36	
UGAUAGCAAUAUUACGUCGU	-2.06 ± 0.34	-2.02 ± 0.35
AUCCAGCAAUAUUACGUUUA	-1.81 ± 0.076	-1.01 ± 0.081
CUUCAGCAAUAUUACGGAUG	-1.48 ± 0.069	-0.191 ± 0.1
CGUCAGCAAUAUUACGACGC		-3.2 ± 0.32
ACUUAGCAAUAUUACGUAUU	-2.02 ± 0.12	-2.26 ± 0.17
CGUAAGCAAUAUUACGCUGA	-3.48 ± 0.42	-1.42 ± 0.18
AGUCAGCAAUAUUACGAGAA		-1.35 ± 0.36
UCUUAGCAAUAUUACGGUUG	-3.34 ± 0.32	-2.18 ± 0.43
AUCAAGCAAUAUUACGGCAA	-0.819 ± 0.088	-0.213 ± 0.097
GAAGAGCAAUAUUACGCACG	-2.22 ± 0.1	-1.71 ± 0.16
GAUGAGCAAUAUUACGGGAA	-3.01 ± 0.23	-3.7 ± 0.42
UGGCAGCAAUAUUACGGCCG	-3.49 ± 0.16	-1.77 ± 0.16
UCUUAGCAAUAUUACGCAUA	-2.4 ± 0.26	-1.47 ± 0.22
UUUCAGCAAUAUUACGACUC	-2.82 ± 0.18	-0.13 ± 0.14
GAUGAGCAAUAUUACGCACG	-3.63 ± 0.32	-2.25 ± 0.3
GCGCAGCAAUAUUACGAUGA	-0.132 ± 0.099	-0.33 ± 0.092
AUUUAGCAAUAUUACGGCUU	-0.173 ± 0.12	0.0373 ± 0.15
